The target of this assay is human melanocortin 1 receptor (hMC1-r transfected COS-7 cells) (human) (UniProt Q01726). Description: Scatchard analysis on MC1-r transfected COS7 cells, culture supernatant with up to 30 nM AP-Ag.

Results on 1 substance are retold here after US20030171295A1.

“AP-Ag, truncated agouti protein containing the cysteine-rich domain tagged with alkaline phosphatase at its N-terminal (from UniProt Q03288) (ligand)”: the Kd (in general, the concentration at which binding is half-saturated) fell in the range of 20 to 30 nM.
